Values quoted from earlier work in article PMC4105053.

What was measured:
[1] = target: MMOR Fd (Methylococcus capsulatus) (UniProt P22868)
[2] = target: MMOB (Methylococcus capsulatus) (UniProt P18797)
Chain of MMOB (Methylococcus capsulatus) (P18797 whole entry): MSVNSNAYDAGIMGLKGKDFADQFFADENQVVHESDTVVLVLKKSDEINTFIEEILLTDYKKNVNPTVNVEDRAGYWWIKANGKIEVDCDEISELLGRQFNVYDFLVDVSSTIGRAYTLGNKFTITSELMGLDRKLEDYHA

Chain of MMOH (P22869 whole entry): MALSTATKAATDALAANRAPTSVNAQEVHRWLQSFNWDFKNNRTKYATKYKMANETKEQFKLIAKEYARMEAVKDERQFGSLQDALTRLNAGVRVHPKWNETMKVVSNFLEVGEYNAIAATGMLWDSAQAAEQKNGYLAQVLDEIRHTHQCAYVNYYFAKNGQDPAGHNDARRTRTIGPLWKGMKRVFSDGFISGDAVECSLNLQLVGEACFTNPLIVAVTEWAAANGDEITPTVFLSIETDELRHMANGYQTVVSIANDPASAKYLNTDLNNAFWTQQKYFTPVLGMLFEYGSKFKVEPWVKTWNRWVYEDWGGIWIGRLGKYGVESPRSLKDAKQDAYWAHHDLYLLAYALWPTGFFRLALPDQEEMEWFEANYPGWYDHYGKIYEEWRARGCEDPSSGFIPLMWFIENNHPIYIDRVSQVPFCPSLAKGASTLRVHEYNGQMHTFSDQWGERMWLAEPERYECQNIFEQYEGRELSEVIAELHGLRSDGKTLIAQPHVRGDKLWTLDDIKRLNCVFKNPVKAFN
Chain of MMOH (P18798 2-389, further chain): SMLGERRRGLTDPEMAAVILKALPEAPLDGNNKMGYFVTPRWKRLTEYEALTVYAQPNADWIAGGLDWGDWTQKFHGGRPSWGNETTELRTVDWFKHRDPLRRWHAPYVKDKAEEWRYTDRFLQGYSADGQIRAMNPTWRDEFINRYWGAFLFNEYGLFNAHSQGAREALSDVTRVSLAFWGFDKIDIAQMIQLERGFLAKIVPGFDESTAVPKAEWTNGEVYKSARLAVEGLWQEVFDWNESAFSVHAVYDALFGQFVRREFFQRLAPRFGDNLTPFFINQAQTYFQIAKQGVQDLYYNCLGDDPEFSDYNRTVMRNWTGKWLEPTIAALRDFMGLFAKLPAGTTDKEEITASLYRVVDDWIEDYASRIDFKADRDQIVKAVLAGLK
Chain of MMOH (P11987 2-170, further chain): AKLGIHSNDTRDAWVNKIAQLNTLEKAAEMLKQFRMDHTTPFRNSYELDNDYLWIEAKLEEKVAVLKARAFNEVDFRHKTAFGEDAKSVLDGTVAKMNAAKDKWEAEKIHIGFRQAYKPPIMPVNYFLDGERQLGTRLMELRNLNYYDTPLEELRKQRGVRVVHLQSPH
Chain of MMOR Fd (Methylococcus capsulatus) (P22868 1-98): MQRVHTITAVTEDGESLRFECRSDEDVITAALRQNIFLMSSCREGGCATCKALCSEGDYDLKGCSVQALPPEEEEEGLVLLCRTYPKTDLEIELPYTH

For MMOH (from UniProt P22869), the Kd [1] is given as 900 nM and the Kd [2] is given as 550 nM.
